Experimental findings from the RNAGym collection of RNA variant scans (doi:10.1073/pnas.2313332121) are described below.

First the molecules themselves.
B1: TPR 5TU (parent)
chain: GGAUCUUCUCGAUCUAACAAAAAAGACAAAUCUGCCACAAAGCUUGAGAGCAUCUUCGGAUGCAGAGGCGGCAGCCUUCGGUGGCGCGAUAGCGCCAACGUUCUCAACUAUGACACGCAAAACGCGUGCUCCGUUGAAUGGAGUUUAUCAUG

This sample holds only a part of the variants without activity.

In this data set the parent is B1. As to the kind of experiment: polymerase ribozyme fitness, log enrichment relative to wild type (log ratio); higher = more active; in vitro selection for triplet polymerase activity. The method, boiled down: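 A single round of triplicate in vitro selection, including frozen incubation at −7 °C, was applied to PCR-built, transcribed mutant libraries of each subunit of a heterodimeric triplet polymerase ribozyme. Illumina sequencing of input and output libraries retained genotypes with ≥10 input reads and ≥1 read per output. Fitness is the base-2 logarithm of genotype enrichment divided by wild-type enrichment, from inverse-variance-weighted replicate averages.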
For G92U A147U, the “polymerase ribozyme fitness (log ratio)” value came out at 0.301.
With A49G C51G U53G C79U C118U the figure was at most -4.2; with U4C A52G G59U U145G, -1.5.
With C14A A29U C51A C96G A115C C118A G141A the figure was at most -4.2; with C95U C149G, -3.59.
With C38U C54U G58C C85U C105G U144C the figure was -2.92; with A17C U31G G48A U53A G80C C85U G133U G140U A142U G152U, at most -4.2; with U82A A106U, -1.16.
On to U53A G86C, for which the “polymerase ribozyme fitness (log ratio)” value was -3.25.
With C18A G86A C96U A115C the figure was -2.7; with A28G U55A G67U A89C C129A G140C, at most -4.2; with U15A U55A C99G, -1.2.
Consider U31C A49U G74A G84U G117C G133U A142C, for which the “polymerase ribozyme fitness (log ratio)” value was at most -4.2.
On to A28U C99G, for which the “polymerase ribozyme fitness (log ratio)” value was -3.72.
As for A20U C79U, the “polymerase ribozyme fitness (log ratio)” value is -3.19.
U7G C27U A37G C43A C57A G94A: the “polymerase ribozyme fitness (log ratio)” value is at most -4.2.
For A73U C116G, the “polymerase ribozyme fitness (log ratio)” value was -2.81.
With A47G G50C U53A A97U G124C the figure was at most -4.2; with U6A A12U A20U A41U A89C A120U, -3.91; with C38U C93A, -2.86.
With A17C G83C the figure was -0.317.
With G83C U104G C118A the figure was -3.08.
On to A52G G117U, for which the “polymerase ribozyme fitness (log ratio)” value came out at 0.374.
With C57A U90A C103G the figure was at most -4.2; with U6A A12U U15C A137C, -3.12; with C57A G58C G84A A91G, -3.28.
With G42U U55G G59A G88U C96G A98G the figure was at most -4.2; with A22G G34C C95U A138G, at most -4.2.
With G48A A52G the figure was 0.139; with A39U U61C, -4.04; with G42A G46U U55G C72G, at most -4.2.
Turning to A24U C35U C96U C105U A147G, the “polymerase ribozyme fitness (log ratio)” value was -3.09.
With C76U G88A A91C the figure was at most -4.2; with C5G U53A C54G U77G U82C G92C C129G U144C, at most -4.2.
With C57G C87U the figure was -2.97; with C79U G83A A107G A110G U144G, at most -4.2; with G68A C99A, at most -4.2.
As for C93A G128C C132G A138G U148G, the “polymerase ribozyme fitness (log ratio)” value is at most -4.2.
With A26G A41G U53A G74A G141A the figure was at most -4.2; with A3C C5A A20U C57A G62C U78G, at most -4.2; with U53C G94A A97G, -2.46.
As to A24G A40U C43U A49C G84A G100U G124A C125G U145G, the “polymerase ribozyme fitness (log ratio)” value is at most -4.2.
With A39C G88C C108G the figure was at most -4.2.
With A40G A41G C63U C76A G83C G152U the figure was at most -4.2; with A17U G86A, -0.694; with G92C C108G G112C C123A G136C A137C A142G, at most -4.2.
With G68A C105U the figure was -3.51; with A16U C51A G74U C87A A107U, at most -4.2; with C18G U44A G83A C85A A98U U102G, at most -4.2.
With C38A U45A C57A C87G U90G A107U, the “polymerase ribozyme fitness (log ratio)” value was at most -4.2.
Take A40C G50A A91G A147C U151A: the “polymerase ribozyme fitness (log ratio)” value is at most -4.2.
With U78C U82G U102G the figure was -3.57; with A19U A26U, -2.56; with C10G C54A G71A, at most -4.2.
With C35U C114A the figure was -3.87; with G59C G124U, -0.228.
With G133U U144A, the “polymerase ribozyme fitness (log ratio)” value was -3.29.
With C14U A26G G92C the figure was at most -4.2; with U56A G88C C99U A119G, at most -4.2.
G46A A49G G50A A52U C96U C123G U139A G143C: the “polymerase ribozyme fitness (log ratio)” value is at most -4.2.
With A49U C85U U148A the figure was at most -4.2; with U82A G86C, -2.69; with U61G C75U G92A C149A, at most -4.2.
C18A: the “polymerase ribozyme fitness (log ratio)” value is -0.302.
On to C69A G81A, for which the “polymerase ribozyme fitness (log ratio)” value is -1.51.
With A28U U33G A89G A91G C95A A98C the figure was at most -4.2; with A22U C38U U53A G74C U90C A120U, at most -4.2; with U15G A21G U135C, -2.43.
With A52G U77G U82C A91G A106U G140A U144A G152U the figure was at most -4.2.
With A21G G74A A89U G92U, the “polymerase ribozyme fitness (log ratio)” value was -3.57.
Consider C14A A22G G86U G140C, for which the “polymerase ribozyme fitness (log ratio)” value is at most -4.2.
As to G140U U145C, the “polymerase ribozyme fitness (log ratio)” value was -3.66.
With C14G U53A the figure was -2.66; with G88A C118U G141U U144A, at most -4.2.
With A24U A47U C96U C116A G133A C149G the figure was at most -4.2.
With A52G G84A C99U A120G the figure was -1.11; with G84C U101A A122G G126U, -3.41.
With U53C U77G G124C U135C, the “polymerase ribozyme fitness (log ratio)” value is at most -4.2.
With A29U G58A C85G A138C the figure was at most -4.2.
With C76A G92U the figure was -2.07; with G50A C116U, -1.34.
With C54U U56G C57U C76U C95G the figure was -2.9; with A12C C57U C72A C93G U111G U146G, at most -4.2.
As to U53A U55A A121U, the “polymerase ribozyme fitness (log ratio)” value was -2.74.
As for U53A G70A, the “polymerase ribozyme fitness (log ratio)” value is -3.81.
As to C10G A49G G59A A60U G88U A97U, the “polymerase ribozyme fitness (log ratio)” value is at most -4.2.
With A64G C103G U148G the figure was at most -4.2; with A12G C54A U55G G58C G92A A97U C125G G128U U135C A138G U139A U145G, at most -4.2.
With C75A C116U the figure was at most -4.2; with U9G C27U U55A C85G C95G C123G G140U, at most -4.2; with A19U G62A C96G, -1.02.
With G25C A52G U56A A60C G67A C99U C116U G133C U135A the figure was at most -4.2; with G62A C87U C116U G117U, -0.42; with U6G A26U A52G G141U U145G, at most -4.2.
Take A22G A47C U55A U61A G92C A142U: the “polymerase ribozyme fitness (log ratio)” value was at most -4.2.
As for A12C G59A C75U C114U A150C, the “polymerase ribozyme fitness (log ratio)” value is at most -4.2.
With A89U A115G the figure was -1.6; with A142U, -0.482.
With C36U A49U C79A A106U A147C the figure was at most -4.2; with U55G U56A C57G C76A C93A, -3.7.
As to C32U A60G, the “polymerase ribozyme fitness (log ratio)” value is -1.63.
With G80C A113G U134A the figure was at most -4.2; with A21C A52C C57A G88A G92A A97U, at most -4.2; with A28U A52C, -3.54.
With A30U C85A C95A C125A U148A the figure was at most -4.2.
On to U44A C95U, for which the “polymerase ribozyme fitness (log ratio)” value was -3.87.
Turning to A29U A47C C54A G94A U102G A110G C132A, the “polymerase ribozyme fitness (log ratio)” value was at most -4.2.
Take A47G C93U: the “polymerase ribozyme fitness (log ratio)” value is -0.775.
With U61G G88C the figure was at most -4.2; with A28U G70C A91G G133C, at most -4.2.
As to C75A C129G U146C, the “polymerase ribozyme fitness (log ratio)” value was at most -4.2.
For U45A U56A G65C A91U G92A U130C A147U, the “polymerase ribozyme fitness (log ratio)” value was at most -4.2.
Regarding A49U U61G C93A C108G C114A U134A C149G, the “polymerase ribozyme fitness (log ratio)” value was at most -4.2.
In the case of G83A A115G G136A U144C, the “polymerase ribozyme fitness (log ratio)” value was -3.84.
As for C8A C96A, the “polymerase ribozyme fitness (log ratio)” value is -3.5.
With C96U A115U U145A the figure was -1.79; with C38U G84U C123U, -0.916.
Regarding C36U U82A G83A G84A G86U C93A C96U G117U, the “polymerase ribozyme fitness (log ratio)” value was -3.98.
Consider A49U A52U A89G A98G, for which the “polymerase ribozyme fitness (log ratio)” value is -3.98.
As for C18G C32U A37G A60G C75U C96U, the “polymerase ribozyme fitness (log ratio)” value is at most -4.2.
In the case of U45G G46A A64U G71U G81A A89G A142G, the “polymerase ribozyme fitness (log ratio)” value is at most -4.2.
With A113U U134C the figure was -2.77; with A60G C85U, -0.323.
With C85U C99G U111C A142G the figure was at most -4.2.
Consider G81U A98U C116A, for which the “polymerase ribozyme fitness (log ratio)” value is 0.542.
With A24C G42C G50U A91U C103A U134A the figure was at most -4.2; with A49G C51G U78C C96G G136A, at most -4.2; with G42C G84A A122U, at most -4.2.
A23G C54A: the “polymerase ribozyme fitness (log ratio)” value is -3.28.
With C18A U56A C93A A137G the figure was -4.08.
With C10G C38U C95A the figure was at most -4.2.
With A22U U55G the figure was -0.206; with C57U G94U C99A, -1.79; with C63A C85G U134A, -4.18.
For A22G U53A A66G C72G U90C U145G, the “polymerase ribozyme fitness (log ratio)” value is at most -4.2.
For C35U C54A U55A G80C C108U U127A, the “polymerase ribozyme fitness (log ratio)” value is at most -4.2.
With A22U U44A U45A A122G G140C G143U U146C the figure was at most -4.2; with A60U C116U G141A, -0.772; with G48C G84A G143A, -2.38.
With A19U A20U C85U C118U the figure was -2.63; with G62A G92A C116U, -2.52; with A52G A113U A150C, at most -4.2.
In the case of C18U A30U C99G A106U, the “polymerase ribozyme fitness (log ratio)” value is at most -4.2.
With G50C C75G C85A C132U the figure was at most -4.2; with A49U G50U C125U, -1.77; with G84U U134A U144C A150U, at most -4.2.
Take C8A C57G U82A A98G: the “polymerase ribozyme fitness (log ratio)” value was at most -4.2.
With U4A C76A C93A A115G G124C C149U the figure was at most -4.2.
With A40G C57G G58A G117C A119U the figure was -1.96.
With U53A G58C G59U A91G C108A G124U G126U, the “polymerase ribozyme fitness (log ratio)” value was at most -4.2.
With C57A A107U the figure was -3.62; with A17U A20G C63G U134G, -3.43; with A47G G94C, -0.418.
With A20C C36U G86A A89G C93A G94U G140A G143C the figure was at most -4.2; with C27U U56A, -1.67; with U6A C108U U134C, -3.33.
With C54U C85U G136U the figure was -2.08; with A22G C32U C103G A147G G152A, at most -4.2; with U6G C38A A41C C95U U104C G126U, -2.03.
For the variant U13G A37U C76G G84U A107U C123U U139G, the “polymerase ribozyme fitness (log ratio)” value is at most -4.2.
A16G C95U C96A G100U U101A C108A U139C U144A: the “polymerase ribozyme fitness (log ratio)” value was at most -4.2.
For the variant A12G A23U U56A C93G, the “polymerase ribozyme fitness (log ratio)” value is at most -4.2.
For the variant G11U A21U A37G A52C C85U, the “polymerase ribozyme fitness (log ratio)” value is -4.18.
With A41C G62A G65C A89C C95G U151A the figure was at most -4.2.
For the variant C27G C38A C85A C87G G126A A137G, the “polymerase ribozyme fitness (log ratio)” value was at most -4.2.
As to A30U C38G C93U, the “polymerase ribozyme fitness (log ratio)” value is at most -4.2.
With G71C G83A G117C C129A the figure was at most -4.2.
